Numbering of substitutions follows the chain as printed.
T1: recombinant WT full-length Nde1, not phosphorylated (dephospho-Nde1) (mouse, UniProt Q9CZA6 1-344)
T1 sequence (looked up): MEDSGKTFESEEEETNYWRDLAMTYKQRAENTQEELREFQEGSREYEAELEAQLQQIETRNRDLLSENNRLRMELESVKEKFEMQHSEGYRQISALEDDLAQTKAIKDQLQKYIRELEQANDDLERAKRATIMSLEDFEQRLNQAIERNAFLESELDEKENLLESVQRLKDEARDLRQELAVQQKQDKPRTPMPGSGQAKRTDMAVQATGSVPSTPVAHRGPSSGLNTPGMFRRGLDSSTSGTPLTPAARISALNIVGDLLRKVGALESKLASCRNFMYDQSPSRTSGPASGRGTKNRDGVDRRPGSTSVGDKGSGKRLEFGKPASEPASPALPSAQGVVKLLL

B1: GFP-Nde1-3E (triple phosphomimetic Nde1) (natural protein, mouse, UniProt Q9CZA6 1-344, looked up)
chain: T1 sequence (looked up) with T215E, T243E, T246E
B2: GST-CENP-F-NBD (GST-tagged CENP-F fragment containing its Nde1-binding domain) (domain or fragment, human, UniProt P49454 2122-2297, looked up)
chain: EKLRVRIEADEKKQLHIAEKLKERERENDSLKDKVENLERELQMSEENQELVILDAENSKAEVETLKTQIEEMARSLKVFELDLVTLRSEKENLTKQIQEKQGQLSELDKLLSSFKSLLEEKEQAEIQIKEESKTAVEMLQNQLKELNEAVAALCGDQEIMKATEQSLDPPIEEEH

What was measured:
CENP-F = CENP-F (UniProt P49454); assay: anti-GFP co-immunoprecipitation; conditions: reference: GFP WT Nde1; sites T215,T243,T246
[1] = biological target: B2; assay: pull-down
[2] = biological target: T1, recombinant WT full-length Nde1, not …; assay: pull-down

Nde1 (from UniProt Q9CZA6) GFP-Nde1-3A
binding against the reference (CENP-F): weaker

B1
fold level pulled down against Nde1-3A [1]: 2.5 fold

B2
binding result [2]: binds
